Test results published in the Human Domainome abundance scans (Beltran et al. 2025).

B1: Nanos homolog 2, residues 63 to 115; numbered along this chain, P60321 (parent)
chain: CNFCKHNGESRHVYSSHQLKTPDGVVVCPILRHYVCPVCGATGDQAHTLKYCP

Variants of: B1
Assay: abundance fitness (aPCA) (normalised: wild type 0, dead -1); higher = more abundant; growth selection in yeast, the domain comes from the species named
Conditions: Homo sapiens

Abundance fitness of substitutions, site by site:
I30: N 0.039; C -0.304; K 0.127; F -0.524; S 0.082; D -0.345; G -0.081; W -0.346; T 0.111; A 0.084; Q -0.05; H 0.041; E -0.108; M 0.015; P -0.249; L -0.033
C28: Q -0.428; R -0.752; L -0.962; W -1.03; T -0.586; F -0.91; S -0.501; G -0.535; Y -0.815; V -0.852; M -0.524; P -0.664; A -0.714; D -0.643; E -0.733
R32: M -0.18; L -0.427; I -0.434; H -0.368; S -0.225; T -0.204; Q -0.446; F -0.514; K -0.204; W -0.419; E -0.49; V -0.473; P -0.715; N -0.522; G -0.352; C -0.662; D -0.376; A -0.241
V25: N 0.08; R 0.019; Q -0.05; S -0.046; W -0.459; Y -0.092; H -0.489; K 0.085; I 0.03; L 0.074; M -0.051; T 0.004
V26: L -0.036; R -0.523; G -0.441; N -0.456; C -0.032; I 0.033; D -0.509; K -0.031; Q -0.305; P -0.359; M -0.292; Y -0.427; F -0.284; E -0.574; S -0.322; T -0.111; A -0.369; W -0.46
V27: G -0.085; F -0.049; M -0.069; L -0.075; C -0.014; K -0.132; A -0.074; H 0.096; I 0.053; R 0.037; D -0.09; T 0.02; Y -0.128; W -0.144; P -0.434; Q -0.349; E -0.148
L31: R -0.415; Q -0.349; A -0.117; K -0.271; M -0.153; P -0.444; W -0.566; S -0.433; N -0.547; G -0.443; D -0.622; C -0.416; I -0.16; E -0.339; Y -0.66; T -0.207; H -0.271; V -0.284
Y34: T 0.036; R 0.046; A -0.071; G -0.229; V -0.033; I -0.107; F -0.011; C -0.066; Q 0.013; N -0.134; D -0.32; S -0.097; L 0.042; H 0.073; K -0.03; P -0.6; M -0.092; W -0.066
H33: M -0.028; C -0.013; P -0.319; I -0.435; R 0.036; D 0.127; E -0.082; V 0.033; N 0.218; F -0.534; T 0.068; K -0.013; A 0.046; Y -0.335; W -0.086
P29: S -0.65; W -1.07; C -1.07; D -0.543; A -0.786; Q -0.38; L -0.978; Y -0.721; K -0.364; N -0.779; M -1.05; E -0.195; G -0.588; R -0.503
V35: D -0.398; A -0.209; C -0.253; G -0.306; E -0.076; F -0.676
